Results published in publication PMC7367201, “G-quadruplexes offer a conserved structural motif for NONO recruitment to NEAT1 architectural lncRNA”.

T1: NONO(53-312) (UniProt Q15233 53-312)
T1 sequence: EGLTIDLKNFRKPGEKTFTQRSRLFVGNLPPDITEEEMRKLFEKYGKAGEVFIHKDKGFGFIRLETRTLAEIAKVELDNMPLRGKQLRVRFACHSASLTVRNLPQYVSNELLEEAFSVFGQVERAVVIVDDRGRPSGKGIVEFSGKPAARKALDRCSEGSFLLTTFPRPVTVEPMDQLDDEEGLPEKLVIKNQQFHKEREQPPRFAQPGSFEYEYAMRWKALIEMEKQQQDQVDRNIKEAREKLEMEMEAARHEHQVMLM

T2: NONO full-length (UniProt Q15233 1-471)
T2 sequence: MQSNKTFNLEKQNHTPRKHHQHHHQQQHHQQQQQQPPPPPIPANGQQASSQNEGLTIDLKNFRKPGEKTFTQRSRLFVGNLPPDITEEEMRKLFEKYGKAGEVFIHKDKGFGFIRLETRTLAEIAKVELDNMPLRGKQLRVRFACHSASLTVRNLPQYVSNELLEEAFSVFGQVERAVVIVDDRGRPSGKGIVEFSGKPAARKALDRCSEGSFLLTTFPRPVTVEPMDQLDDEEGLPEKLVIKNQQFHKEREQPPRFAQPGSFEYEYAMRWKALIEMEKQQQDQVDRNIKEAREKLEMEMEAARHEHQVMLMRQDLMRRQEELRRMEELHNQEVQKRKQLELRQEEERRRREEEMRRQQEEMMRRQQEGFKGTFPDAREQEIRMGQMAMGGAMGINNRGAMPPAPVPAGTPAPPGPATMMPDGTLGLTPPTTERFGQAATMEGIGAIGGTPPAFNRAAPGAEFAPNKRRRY


Assays:
NONO(53-312) [1] = target: T1, NONO(53-312); test: competition; vs labelled NEAT1_22619 G4, 1-200x excess; no significant competition; NONO(53-312) EMSA: 20 mM HEPES pH 7.5, 5.7 mM Tris-HCl, 113 mM KCl, 10% glycerol, 62 mM L-proline, 1% EMPIGEN BB, 0.12 mM EDTA, 4 C 1 h, 10 nM RNA; full-length: 20 mM HEPES pH 7.4, 11 mM Tris, 105 mM KCl, 14% glycerol, 40 mM glycine, 0.2 mM EDTA, 0.5 mM DTT, 0.5% BSA, 25 C; pulldown: 10 mM HEPES pH 7.0, 200 mM KCl, 1% Triton X-100, 1 …; details: protein: recombinant; tags: His tag removed by TEV; chain copies: 2; label: none; annealed with 100 mM KCl
NONO(53-312) [2] = target: T1, NONO(53-312); test: competition; vs labelled NEAT1_22619 G4, 1-200x excess; NONO(53-312) EMSA: 20 mM HEPES pH 7.5, 5.7 mM Tris-HCl, 113 mM KCl, 10% glycerol, 62 mM L-proline, 1% EMPIGEN BB, 0.12 mM EDTA, 4 C 1 h, 10 nM RNA; full-length: 20 mM HEPES pH 7.4, 11 mM Tris, 105 mM KCl, 14% glycerol, 40 mM glycine, 0.2 mM EDTA, 0.5 mM DTT, 0.5% BSA, 25 C; pulldown: 10 mM HEPES pH 7.0, 200 mM KCl, 1% Triton X-100, 1 mM MgCl2, 1 mM DTT, 4 C, …; details: protein: recombinant; tags: His tag removed by TEV; chain copies: 2; label: none; intramolecular G4
NONO full-length = target: T2, NONO full-length; test: EMSA; annealed with 100 mM KCl; complex retained in wells; NONO(53-312) EMSA: 20 mM HEPES pH 7.5, 5.7 mM Tris-HCl, 113 mM KCl, 10% glycerol, 62 mM L-proline, 1% EMPIGEN BB, 0.12 mM EDTA, 4 C 1 h, 10 nM RNA; full-length: 20 mM HEPES pH 7.4, 11 mM Tris, 105 mM KCl, 14% glycerol, 40 mM glycine, 0.2 mM EDTA, 0.5 mM DTT, 0.5% BSA, 25 C; pulldown: 10 mM HEPES pH 7.0, 200 mM KCl, 1% Triton X-100, 1 mM MgCl2, 1 mM DTT, 4 C, …; details: protein: commercial; tags: MYC/DDK; chain copies: 2; label: 3' Cy5; intramolecular G4, annealed with 100 mM KCl
NONO(53-312) [3] = target: T1, NONO(53-312); test: EMSA; annealed with 100 mM KCl; NONO(53-312) EMSA: 20 mM HEPES pH 7.5, 5.7 mM Tris-HCl, 113 mM KCl, 10% glycerol, 62 mM L-proline, 1% EMPIGEN BB, 0.12 mM EDTA, 4 C 1 h, 10 nM RNA; full-length: 20 mM HEPES pH 7.4, 11 mM Tris, 105 mM KCl, 14% glycerol, 40 mM glycine, 0.2 mM EDTA, 0.5 mM DTT, 0.5% BSA, 25 C; pulldown: 10 mM HEPES pH 7.0, 200 mM KCl, 1% Triton X-100, 1 mM MgCl2, 1 mM DTT, 4 C, washes to 1.6 M KCl; details: protein: recombinant; tags: His tag removed by TEV; chain copies: 2; label: 3' Cy5; intramolecular G4, annealed with 100 mM KCl

Row | Binder | binding result (NONO(53-312) [2]) | binding result (NONO(53-312) [3]) | further results
1 | AAAAAGGUAAG (ssRNA) [5'-Splice Site RNA] | – | – | binding result (NONO(53-312) [1]): no binding
2 | GGGGCCGGGGCCGGGGCCGGGGCC (structured_RNA) [(GGGGCC)4 G-quadruplex competitor] | binds | – | –
3 | GGGAGGGAGGGAGGG (structured_RNA) [NEAT1_22619 G-quadruplex competitor] | binds | – | –
4 | GGGAGGGAGGGAGGG (structured_RNA) [NEAT1_22619 G-quadruplex] | – | binds | binding result (NONO full-length): binds
5 | GGGGCCGGGGCCGGGGCCGGGGCC (structured_RNA) [(GGGGCC)4 G-quadruplex] | – | binds | –
